Measurements: US20030073111

molecular target: GST-IκBα (1-62)

Protein	immunoprecipitatable kinase activity towards GST-IκBα(1-62)
IKKα/CHUK (protein) MERPPGLRPGAGGPWEMRERLGTGGFGNVSLYQHRELDLKIAIKSCRLELSSKNRERWCHEIQIMKKLDHANVVKACDVPEELNFLINDVPLLAMEYCSGGDLRKLLNKPENCCGLKESQILSLLSDIGSGIRYLHENKIIHRDLKPENIVLQDVGGKTIHKIIDLGYAKDVDQGSLCTSFVGTLQYLAPELFENKPYTATVDYWSFGTMVFECIAGYRPFLHHLQPFTWHEKIKKKDPKCIFACEEMTGEVRFSSHLPQPNSLCSLIVEPMESWLQLMLNWDPQQRGGPIDLTLKQPRCFALMDHILNLKIVHILNMTSAKIISFLLPCDESLHSLQSRIERETGINTGSQELLSETGISLDPRKPASQCVLDGVRGCDSYMVYLFDKSKTVYEGPFASRSLSDCVNYIVQDSKIQLPIIQLRKVWAEAVHYVSGLKEDYSRLFQGQRAAMLSLLRYNANLTKMKNTLISASQQLKAKLEFFRKSIQLDLERYSEQMTYGISSEKMLKAWKEMEEKAIHYSEVGVIGYLEDQIMSLHTEIMELQKSPYGRRQGDLMESLEQRAIDLYKQLKHRPPDHLYSDSTEMVKIIVHTVQSQDRVLKELFGHLSKLLGCKQKIIDLLPKVEVALSNIKEADNTVMFMQGKRQKEIWHLLKIACTQSSARSLVGSSLEGTVTPPVSAWLPPTLADREHPLTCVVTPQDGETLAQMIEENLNCLGHLSTIIREANEDQSSSLMSLDWSWLAE	TNF-α stimulation of HEK293 cells transfected with each IKKα/CHUK isoform resulted in an increase in immunoprecipitatable kinase activity towards GST-IκBα(1-62)
IKKα-ΔLH (protein) MERPPGLRPGAGGPWEMRERLGTGGFGNVSLYQHRELDLKIAIKSCRLELSSKNRERWCHEIQIMKKLDHANVVKACDVPEELNFLINDVPLLAMEYCSGGDLRKLLNKPENCCGLKESQILSLLSDIGSGIRYLHENKIIHRDLKPENIVLQDVGGKTIHKIIDLGYAKDVDQGSLCTSFVGTLQYLAPELFENKPYTATVDYWSFGTMVFECIAGYRPFLHHLQPFTWHEKIKKKDPKCIFACEEMTGEVRFSSHLPQPNSLCSLIVEPMESWLQLMLNWDPQQRGGPIDLTLKQPRCFALMDHILNLKIVHILNMTSAKIISFLLPCDESLHSLQSRIERETGINTGSQELLSETGISLDPRKPASQCVLDGVRGCDSYMVYLFDKSKTVYEGPFASRSLSDCVNYIVQDSKIQLPIIQLRKVWAEAVHYVSGLKEDYSRLFQGQRAAIFRKNVKSMERNGRKGHSLF	TNF-α stimulation of HEK293 cells transfected with each IKKα/CHUK isoform resulted in an increase in immunoprecipitatable kinase activity towards GST-IκBα(1-62)
IKKα-ΔCm (protein) MERPPGLRPGAGGPWEMRERLGTGGFGNVSLYQHRELDLKIAIKSCRLELSSKNRERWCHEIQIMKKLDHANVVKACDVPEELNFLINDVPLLAMEYCSGGDLRKLLNKPENCCGLKESQILSLLSDIGSGIRYLHENKIIHRDLKPENIVLQDVGGKTIHKIIDLGYAKDVDQGSLCTSFVGTLQYLAPELFENKPYTATVDYWSFGTMVFECIAGYRPFLHHLQPFTWHEKIKKKDPKCIFACEEMTGEVRFSSHLPQPNSLCSLIVEPMESWLQLMLNWDPQQRGGPIDLTLKQPRCFALMDHILNLKIVHILNMTSAKIISFLLPCDESLHSLQSRIERETGINTGSQELLSETGISLDPRKPASQCVLDGVRGCDSYMVYLFDKSKTVYEGPFASRSLSDCVNYIVQDSKIQLPIIQLRKVWAEAVHYVSGLKEDYSRLFQGQRAA	TNF-α stimulation of HEK293 cells transfected with each IKKα/CHUK isoform resulted in an increase in immunoprecipitatable kinase activity towards GST-IκBα(1-62)
